These results are taken from PMC5458804 (Nature cell biology, 2017).

In test [1] the target is p60N/p80C heterodimer (mouse) (UniProt Q9WV86). The test can be described thus: crystal structure.
Test [2] has the same target. The test can be described thus: AUC.
For test [3], the target named is p80C (C-terminal domain of katanin p80) (mouse, UniProt Q8BG40 481-658). Put plainly: AUC.
The target of test [4] is p80C-R615A (mouse, UniProt Q8BG40 481-658, R615A). Put plainly: AUC.
The target of test [5] is p80C-Y574A (mouse, UniProt Q8BG40 481-658, Y574A). The test can be described thus: AUC.
Sequence of p80C-Y574A (Q8BG40 481-658 Y574A): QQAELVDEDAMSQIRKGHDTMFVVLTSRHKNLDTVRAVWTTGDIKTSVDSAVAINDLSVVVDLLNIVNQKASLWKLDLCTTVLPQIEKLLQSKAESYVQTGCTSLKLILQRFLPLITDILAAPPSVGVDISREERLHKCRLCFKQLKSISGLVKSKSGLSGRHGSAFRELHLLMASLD
In test [6] the target is p80C-S538L (mouse, UniProt Q8BG40 481-658, S538L). Put plainly: AUC.
Sequence of p80C-S538L (Q8BG40 481-658 S538L): as the sequence (Q8BG40 481-658 Y574A) above, with S58L, A94Y counted along it

Sequence of p80C (C-terminal domain of katanin p80) (Q8BG40 481-658): as the sequence (Q8BG40 481-658 Y574A) above, with A94Y counted along it
Sequence of p80C-R615A (Q8BG40 481-658 R615A): as the sequence (Q8BG40 481-658 Y574A) above, with A94Y, R135A counted along it

The molecule “ASPMp (peptide corresponding to the third repeat of ASPM, as crystallised)” displayed a stoichiometry N in test [1] of 1.
For the molecule TAMRA-labeled ASPMp peptide, the Kd in test [2] worked out at 9 µM.

B1: p60N (N-terminal domain of katanin p60) (domain or fragment)
chain: MSLQMIVENVKLAREYALLGNYDSAMVYYQGVLDQMNKYLYSVKDTHLRQKWQQVWQEINVEAKQVKDIMKTLESFKL
As for B1, the binding result in test [3], in test [4], in test [5] and in test [6] was “binds” throughout.

B2: p60N-L19A (domain or fragment)
chain: MSLQMIVENVKLAREYALAGNYDSAMVYYQGVLDQMNKYLYSVKDTHLRQKWQQVWQEINVEAKQVKDIMKTLESFKL
Take B2: the binding result in test [3] was “binds”.

B3: p60N-L18A (domain or fragment)
chain: MSLQMIVENVKLAREYAALGNYDSAMVYYQGVLDQMNKYLYSVKDTHLRQKWQQVWQEINVEAKQVKDIMKTLESFKL
Turning to B3, the binding result in test [3] is on record as “binds”.
